The text below walks through data of patent US20050048606A1 (AGENCY FOR SCIENCE TECHNOLOGY AND RESEARCH, published 2005).

The target of the assay is TrkA (rat (endogenous in PC12 rat …, UniProt P35739 33-799)). The assay is described as follows: cell-based or functional assay.
TrkA (rat, sequence (P35739 33-799): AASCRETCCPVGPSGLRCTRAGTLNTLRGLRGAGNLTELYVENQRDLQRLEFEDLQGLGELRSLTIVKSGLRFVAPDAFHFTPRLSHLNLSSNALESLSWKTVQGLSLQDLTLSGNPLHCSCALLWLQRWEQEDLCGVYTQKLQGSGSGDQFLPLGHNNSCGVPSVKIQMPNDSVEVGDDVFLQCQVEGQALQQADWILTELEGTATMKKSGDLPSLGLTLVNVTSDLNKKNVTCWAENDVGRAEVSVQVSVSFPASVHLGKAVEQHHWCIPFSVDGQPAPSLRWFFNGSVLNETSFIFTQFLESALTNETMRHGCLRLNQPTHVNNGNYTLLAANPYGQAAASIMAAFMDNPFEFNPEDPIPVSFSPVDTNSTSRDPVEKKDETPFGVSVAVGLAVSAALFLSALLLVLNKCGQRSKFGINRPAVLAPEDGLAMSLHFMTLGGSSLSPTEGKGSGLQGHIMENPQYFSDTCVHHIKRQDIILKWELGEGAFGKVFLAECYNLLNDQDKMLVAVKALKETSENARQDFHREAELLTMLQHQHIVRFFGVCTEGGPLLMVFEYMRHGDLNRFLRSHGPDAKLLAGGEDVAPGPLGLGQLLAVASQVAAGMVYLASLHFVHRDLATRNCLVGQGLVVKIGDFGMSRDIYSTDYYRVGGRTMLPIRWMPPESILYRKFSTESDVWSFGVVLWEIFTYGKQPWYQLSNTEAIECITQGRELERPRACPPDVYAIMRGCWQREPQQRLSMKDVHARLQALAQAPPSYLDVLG

B1: SPKR4NL1-2 (other)
chain: MGHHHHHHHHHHSSGHIEGRHMSPKRSPKRSPKRSPKRGGTYLSEDELKAAEAAFKRHNPTGSCSVSVWVGDKTTATDIKGKEVMVLGEVNINNSVFKQYFFETKCRDPNPVDSG
modifications: disulfide bridge intended between the added Cys and the Cys corresponding to C58 of NGF
With B1, the “increase in gene expression in PC12 cells, SPKR4NL1-2 group against (SPKR)4 group (luciferase)” value amounted to 1400 fold.
